Measured values reported in the supplement of paper PMC11136658.

Test system: peptide library, one residue held at a place counted from the Y acceptor
Test: relative phosphorylation of the sub-library (ratio to the mean residue at this position); higher = residue favoured
Procedure, shortened: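 Peptide library mixtures, biotinylated and centred on Tyr, each fixed one residue at one position from −5 to +5. Purified recombinant kinases were incubated with them for 90 min in 384-well plates alongside 50 μM ATP and γ-32P-ATP, and the captured, rinsed peptides on streptavidin membranes were measured by phosphorimaging and ImageQuant. Normalization divided each position's intensities by the sum of its 18 randomized residues (16 for the Ser/Thr-free library) and multiplied by that number, so that values give phosphorylation relative to the mean randomized residue.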

Sequence of NTRK3, construct: aa510-end, human (Q16288 510-839, looked up): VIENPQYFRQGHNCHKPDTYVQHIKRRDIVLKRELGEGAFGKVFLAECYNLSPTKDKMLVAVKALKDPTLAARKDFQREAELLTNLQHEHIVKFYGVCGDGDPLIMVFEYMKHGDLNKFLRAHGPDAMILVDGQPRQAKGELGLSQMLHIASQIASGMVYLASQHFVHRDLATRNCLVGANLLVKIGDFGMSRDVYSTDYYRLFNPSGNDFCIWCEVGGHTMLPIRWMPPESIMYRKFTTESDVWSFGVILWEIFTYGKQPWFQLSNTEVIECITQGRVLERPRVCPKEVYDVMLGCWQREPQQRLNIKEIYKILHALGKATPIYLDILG

NTRK3, construct: aa510-end, human (from UniProt Q16288)
relative phosphorylation
Settings | at +1 | at +2 | at +3 | at +4 | at +5 | at -1 | at -2 | at -3 | at -4 | at -5
A fixed | 1.69 | 0.892 | 0.734 | 0.952 | 1.02 | 0.783 | 1.09 | 0.974 | 1.11 | 1.07
D fixed | 0.49 | 0.785 | 0.467 | 0.945 | 0.698 | 2.14 | 1.23 | 1.2 | 1.15 | 1.18
E fixed | 0.8 | 1.08 | 0.378 | 1.29 | 0.752 | 1.3 | 1.51 | 1.47 | 1.61 | 1.17
F fixed | 1.63 | 1.19 | 1.77 | 1.06 | 1.2 | 0.893 | 0.809 | 1.08 | 1.33 | 0.973
G fixed | 0.753 | 0.459 | 0.63 | 1.37 | 1.12 | 0.495 | 1.19 | 1.08 | 1.22 | 1.35
H fixed | 1.43 | 0.887 | 0.884 | 1.15 | 1.21 | 1.47 | 1.1 | 1.26 | 0.913 | 0.977
I fixed | 1.77 | 1.04 | 2.41 | 0.792 | 0.939 | 1.38 | 0.831 | 0.755 | 0.902 | 0.965
K fixed | 0.14 | 0.714 | 0.269 | 0.674 | 0.867 | 0.149 | 0.635 | 0.559 | 0.657 | 0.717
L fixed | 0.821 | 1.09 | 2.05 | 0.72 | 1 | 1.24 | 0.776 | 0.724 | 0.961 | 0.986
M fixed | 1.53 | 1.08 | 1.55 | 1.11 | 0.978 | 0.745 | 0.654 | 0.775 | 0.753 | 1.02
N fixed | 0.322 | 1.11 | 0.403 | 0.855 | 0.687 | 2.5 | 1.17 | 1.41 | 0.809 | 1.22
P fixed | 0.269 | 0.874 | 0.906 | 1.63 | 1.6 | 1.11 | 1.12 | 0.994 | 1.14 | 1.18
Q fixed | 0.686 | 1.02 | 0.485 | 0.908 | 0.702 | 0.756 | 1.11 | 0.791 | 1.01 | 0.943
R fixed | 0.173 | 1.05 | 0.375 | 0.821 | 0.975 | 0.196 | 0.731 | 0.682 | 0.641 | 0.87
S fixed | 0.83 | 1.02 | 0.77 | 0.869 | 0.961 | 0.701 | 1.2 | 1.14 | 0.748 | 0.814
T fixed | 0.871 | 0.983 | 0.741 | 0.862 | 0.919 | 0.784 | 1 | 1.04 | 0.684 | 0.88
V fixed | 1.95 | 0.976 | 1.64 | 0.786 | 0.807 | 0.872 | 0.87 | 0.738 | 0.823 | 0.734
W fixed | 1.85 | 1.76 | 1.54 | 1.21 | 1.55 | 0.48 | 0.989 | 1.32 | 1.53 | 0.951
pThr fixed | 1.61 | 0.745 | 0.374 | 0.914 | 0.625 | 0.999 | 1 | 0.982 | 0.995 | 0.973
pTyr fixed | 2.92 | 1.81 | 0.837 | 1.17 | 0.96 | 7.29 | 1.63 | 1.86 | 1.64 | 1.2
